From patent US20090074722A1, “Products and methods for treating PTP lar diseases” (MAX-PLANCK-GESELLSCHAFT ZUR, priority 1999, published 2009) come the findings set out here.

The experiment has as its target T1, tyrosine phosphorylated β-catenin (Homo sapiens, UniProt P35222).
T1 construct: expressed in transfected cells; host or cells: human 293 embryonic kidney cells, transient; CMV-promoter vector; immunoprecipitated with anti-β-catenin antibody
T1 sequence (P35222 1-781): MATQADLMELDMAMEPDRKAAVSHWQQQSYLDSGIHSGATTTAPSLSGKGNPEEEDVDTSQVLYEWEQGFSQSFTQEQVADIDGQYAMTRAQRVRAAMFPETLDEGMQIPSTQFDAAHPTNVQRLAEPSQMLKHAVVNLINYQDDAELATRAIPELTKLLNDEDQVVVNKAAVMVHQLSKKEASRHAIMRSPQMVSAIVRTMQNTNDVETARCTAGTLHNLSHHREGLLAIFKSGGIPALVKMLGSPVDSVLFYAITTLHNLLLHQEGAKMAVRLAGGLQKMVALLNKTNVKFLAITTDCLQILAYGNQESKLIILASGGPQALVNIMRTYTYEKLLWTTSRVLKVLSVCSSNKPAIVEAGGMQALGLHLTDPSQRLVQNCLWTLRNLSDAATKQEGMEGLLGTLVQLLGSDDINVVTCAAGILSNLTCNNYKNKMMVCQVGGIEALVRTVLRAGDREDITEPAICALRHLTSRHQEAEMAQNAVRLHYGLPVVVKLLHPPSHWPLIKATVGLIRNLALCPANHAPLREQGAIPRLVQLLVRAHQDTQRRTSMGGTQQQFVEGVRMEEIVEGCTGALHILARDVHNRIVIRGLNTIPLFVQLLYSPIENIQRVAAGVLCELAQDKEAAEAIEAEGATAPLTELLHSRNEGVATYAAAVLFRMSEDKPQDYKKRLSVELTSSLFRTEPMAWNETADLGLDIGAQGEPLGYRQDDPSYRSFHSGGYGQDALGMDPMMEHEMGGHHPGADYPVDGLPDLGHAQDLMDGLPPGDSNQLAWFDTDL
Kind of experiment: In vitro dephosphorylation assay. The format is biochemical. Particulars: 200 ng GST fusion protein, 25° C.; within the first five minutes; anti-phosphotyrosine Western blot. How it is done: After 24 h of serum starvation, the cells were stimulated with pervanadate before lysis. β-catenin was subsequently immunoprecipitated with an anti-β-catenin antibody, and precipitates were incubated for the indicated time intervals with GST-PTP LAR cytoplasmic fusion protein (left), GST-PTP LAR PTP D1 C1522S-mutant (middle) or GST-PTP LAR PTP D2 C1813S-mutant (right). Reactions were terminated after the indicated periods of time, and proteins were separated by SDS-PAGE. Tyrosine phosphorylation levels of […] were analyzed by Western blotting with an anti-phosphotyrosine antibody (top). […] Arrows indicate the proteins of interest.
In Vitro Dephosphorylation Assay—β-catenin was transiently overexpressed in human 293 embryonic kidney cells. Cells were serum-starved, treated with pervanadate ([…]/0.1 mM Na-orthovanadate) for 10 minutes and lysed. Immunoprecipitations were performed as described above except that HNTG without pyrophosphate, ammonium-molybdate, and Na-orthovanadate was used. PTP activity towards tyrosine phosphorylated β-catenin was assayed in 200 μL reactions at 25° C. containing 25 mM HEPES, pH 7.5, 5 mM EDTA, 10 mM DTT, and 1 mg/mL BSA with 200 ng of GST-hPTP LAR cytoplasmic, GST-hPTP LAR D1 C1522S, or GST-hPTP LAR D2 C1813S added. Reactions were stopped by washing with HNTG and subsequently separated by SDS-PAGE. The tyrosine phosphorylation status was analyzed by Western blotting using anti-phosphotyrosine antibody.
The association of β-catenin and plakoglobin with PTP LAR prompted the investigation of whether these proteins could represent actual substrates for PTP LAR. […] After different time intervals, the reactions were terminated and analyzed with an anti-phosphotyrosine specific antibody.
(Immunoblotting shows a protein as a band on a membrane.)

B1: GST-PTP LAR cytoplasmic: GST fusion protein comprising the entire cytoplasmic domain (amino acids 1259-1881) of human PTP LAR (protein)
chain: PEMLWVTGPVLAVILIILIVIAILLFKRKRTHSPSSKDEQSIGLKDSLLAHSSDPVEMRRLNYQTPGMRDHPPIPITDLADNIERLKANDGLKFSQEYESIDPGQQFTWENSNLEVNKPKNRYANVIAYDHSRVILTSIDGVPGSDYINANYIDGYRKQNAYIATQGPLPETMGDFWRMVWEQRTATVVMMTRLEEKSRVKCDQYWPARGTETCGLIQVTLLDTVELATYTVRTFALHKSGSSEKRELRQFQFMAWPDHGVPEYPTPILAFLRRVKACNPLDAGPMVVHCSAGVGRTGCFIVIDAMLERMKHEKTVDIYGHVTCMRSQRNYMVQTEDQYVFIHEALLEAATCGHTEVPARNLYAHIQKLGQVPPGESVTAMELEFKLLASSKAHTSRFISANLPCNKFKNRLVNIMPYELTRVCLQPIRGVEGSDYINASFLDGYRQQKAYIATQGPLAESTEDFWRMLWEHNSTIIVMLTKLREMGREKCHQYWPAERSARYQYFVVDPMAEYNMPQYILREFKVTDARDGQSRTIRQFQFTDWPEQGVPKTGEGFIDFIGQVHKTKEQFGQDGPITVHCSAGVGRTGVFITLSIVLERMRYEGVVDMFQTVKTLRTQRPAM
Take B1: the “tyrosine phosphorylation signal of β-catenin” value is recorded as “significant reduction in the tyrosine phosphorylation signal”.
